Data as given in paper PMC6540952.

Tested on: Nc1ncnc2c1ncn2[C@@H]1O[C@H](COP(=O)(O)OP(=O)(O)OP(=O)(O)O)[C@@H](O)[C@H]1O
Assay: purified protein
Assay type: biochemical, Homo sapiens

Substance: IP6K1 (Homo sapiens)
- Km: 353 ± 167 µM
